Two molecules from paper PMC8950404, “Signal Sequence-Dependent Orientation of Signal Peptide Fragments to Exosomes” (International Journal of Molecular Sciences, 2022) can be followed below.

The target of this test is T1, recombinant human calmodulin (CALM) 1/2/3 (human, UniProt P0DP23 1-149).
T1 construct: human calmodulin, printed as calmodulin (CALM) 1/2/3; also called His-tagged CALM; source: bought: Abcam; not shown: His tag, N-terminal, kept
Briefly: pull-down; hAPP SP (9–17) 500 nM mixed with N-terminally His-tagged CALM 1 μg/mL in xTractor buffer, with or without CaCl2 500 μM, overnight at 4 °C; CALM separated on a Capturem His-Tagged Purification Miniprep; bound peptides read by MALDI-TOF MS/MS. The note with it: both partners purified.

B1: hAPP SP (9–17) (peptide)
peptide: LLAAWTARA
notes: residues 9-17 of the signal peptide of human amyloid precursor protein (APP); also called C-terminal fragment of APP SP; source: synthetic peptide, bought: Eurofins Scientific
Regarding B1, the binding result is on record as “binds”.

B2: C-terminal fragment of APP SP (LAAWTARA) (peptide)
peptide: LAAWTARA
notes: stretch of the signal peptide of human amyloid precursor protein (APP), one residue shorter than hAPP SP (9–17); also called exosomal SP fragment
On to B2, for which the binding result is reported as “binds”.
